The results in this text go back to patent US20210253733A1.

Assay [1] deals with recombinant murine CD163 (R&D Systems, No. 7435-CD-050) (murine) (UniProt Q2VLH6). The assay can be described thus: ELISA, plate coated with 5 ug/mL recombinant murine CD163, A450.
Assay [2] deals with human CD163 ECD with a C-terminal 8 histidine tag (HEK293-6E) (human) (UniProt Q86VB7). The assay can be described thus: binding titration on recombinant huCD163 ECD.
In assay [3] the target is human CD163 expressed on human myeloid cells (M2c macrophages, M2 macrophages, in vitro MDSCs) (human) (UniProt Q86VB7). The assay can be described thus: flow cytometry, APC-labelled anti-huCD163 on M2c macrophages pre-treated with 200 ug/mL goat control polyclonal antibody. In general terms: A flow cytometer gives signals particle by particle.
human CD163 expressed on human myeloid cells (M2c macrophages, M2 macrophages, in vitro MDSCs) (human), sequence (Q86VB7 42-1114, tags or fused parts left off): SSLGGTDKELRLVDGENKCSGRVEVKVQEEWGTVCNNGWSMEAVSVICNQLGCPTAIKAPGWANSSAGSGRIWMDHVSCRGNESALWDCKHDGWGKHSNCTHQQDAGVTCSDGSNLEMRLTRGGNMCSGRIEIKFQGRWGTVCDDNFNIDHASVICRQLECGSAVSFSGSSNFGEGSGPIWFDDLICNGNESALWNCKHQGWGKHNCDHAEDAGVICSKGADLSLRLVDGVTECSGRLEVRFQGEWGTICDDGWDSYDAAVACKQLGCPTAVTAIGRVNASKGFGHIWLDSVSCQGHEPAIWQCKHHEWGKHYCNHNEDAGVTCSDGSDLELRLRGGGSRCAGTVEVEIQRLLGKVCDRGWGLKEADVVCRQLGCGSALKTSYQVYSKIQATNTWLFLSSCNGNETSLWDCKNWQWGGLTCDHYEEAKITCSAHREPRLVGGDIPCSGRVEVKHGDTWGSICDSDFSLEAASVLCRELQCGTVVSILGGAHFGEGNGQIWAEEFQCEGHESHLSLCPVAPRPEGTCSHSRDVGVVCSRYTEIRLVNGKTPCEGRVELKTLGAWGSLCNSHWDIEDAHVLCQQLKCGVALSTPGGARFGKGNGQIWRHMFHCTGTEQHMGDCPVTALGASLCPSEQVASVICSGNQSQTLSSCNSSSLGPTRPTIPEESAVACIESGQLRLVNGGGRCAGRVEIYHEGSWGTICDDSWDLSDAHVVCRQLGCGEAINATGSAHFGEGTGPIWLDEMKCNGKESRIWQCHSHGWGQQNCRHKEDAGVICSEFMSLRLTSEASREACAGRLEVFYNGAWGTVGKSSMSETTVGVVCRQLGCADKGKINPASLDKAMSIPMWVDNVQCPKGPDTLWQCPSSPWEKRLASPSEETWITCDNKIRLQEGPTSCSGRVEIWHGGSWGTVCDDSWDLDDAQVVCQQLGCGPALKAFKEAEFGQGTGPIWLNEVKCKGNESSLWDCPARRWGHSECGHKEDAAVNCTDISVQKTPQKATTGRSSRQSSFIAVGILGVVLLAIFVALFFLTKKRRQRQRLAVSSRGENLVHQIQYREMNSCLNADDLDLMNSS
The target of assay [4] is purified recombinant human CD163 protein used for SPR (human) (UniProt Q86VB7). Briefly: SPR (Biacore T200), CD163 amine-coupled to chip, antibody as analyte, EDTA buffer.
purified recombinant human CD163 protein used for SPR (human), sequence (Q86VB7 46-1050 limits assumed): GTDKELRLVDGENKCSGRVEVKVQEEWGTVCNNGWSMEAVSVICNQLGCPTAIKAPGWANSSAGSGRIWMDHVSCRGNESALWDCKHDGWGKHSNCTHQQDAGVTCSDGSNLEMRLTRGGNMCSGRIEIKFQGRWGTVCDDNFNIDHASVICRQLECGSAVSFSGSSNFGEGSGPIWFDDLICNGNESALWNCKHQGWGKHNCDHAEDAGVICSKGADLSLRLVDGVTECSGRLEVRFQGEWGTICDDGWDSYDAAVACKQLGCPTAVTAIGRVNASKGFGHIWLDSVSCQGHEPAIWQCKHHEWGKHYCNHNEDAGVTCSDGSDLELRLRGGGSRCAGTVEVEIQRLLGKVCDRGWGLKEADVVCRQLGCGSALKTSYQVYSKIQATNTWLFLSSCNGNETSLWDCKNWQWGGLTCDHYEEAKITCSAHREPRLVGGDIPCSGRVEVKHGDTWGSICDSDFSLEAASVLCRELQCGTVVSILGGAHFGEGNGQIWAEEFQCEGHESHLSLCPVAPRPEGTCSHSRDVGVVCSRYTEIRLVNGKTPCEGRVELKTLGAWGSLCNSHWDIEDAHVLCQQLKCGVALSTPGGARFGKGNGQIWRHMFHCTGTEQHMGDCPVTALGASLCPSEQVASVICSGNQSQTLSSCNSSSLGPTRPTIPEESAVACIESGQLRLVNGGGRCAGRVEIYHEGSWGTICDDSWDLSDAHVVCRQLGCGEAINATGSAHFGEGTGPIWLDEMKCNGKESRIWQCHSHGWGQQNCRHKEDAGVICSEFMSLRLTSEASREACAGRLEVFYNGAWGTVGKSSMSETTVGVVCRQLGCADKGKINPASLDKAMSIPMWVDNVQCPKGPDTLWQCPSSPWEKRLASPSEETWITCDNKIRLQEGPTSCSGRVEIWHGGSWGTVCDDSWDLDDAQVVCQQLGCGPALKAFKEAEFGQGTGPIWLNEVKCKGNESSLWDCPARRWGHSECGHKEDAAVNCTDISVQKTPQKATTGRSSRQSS
Assay [5] has the same target. The assay can be described thus: SPR (Biacore T200), CD163 amine-coupled to chip, antibody as analyte, calcium-containing buffer. On the technique in general: Surface plasmon resonance follows binding to a sensor surface in real time, without labels.
The target of assay [6] is His-tagged recombinant human CD163 (R&D Systems, No. 1607-CD-050) (human) (UniProt Q86VB7). The assay can be described thus: ELISA, plate coated with 5 ug/mL His-tagged recombinant human CD163, HRP anti-mouse IgG F(ab')2, A450.
Assay [7] addresses human CD163 expressed on human myeloid cells (M2c macrophages, M2 macrophages, in vitro MDSCs) (human) (UniProt Q86VB7). The assay can be described thus: flow cytometry, unconjugated anti-CD163 (MAB1607) with labelled secondary antibody on untreated M2c macrophages.
Assay [8] deals with truncated human CD163 ECD SRCR domain 1-5 fragment with C-terminus histidine tag (HEK293-6E) (human) (UniProt Q86VB7). The assay can be described thus: binding titration on truncated huCD163 SRCR 1-5.
truncated human CD163 ECD SRCR domain 1-5 fragment with C-terminus histidine tag (HEK293-6E) (human), sequence (Q86VB7 42-578 limits assumed): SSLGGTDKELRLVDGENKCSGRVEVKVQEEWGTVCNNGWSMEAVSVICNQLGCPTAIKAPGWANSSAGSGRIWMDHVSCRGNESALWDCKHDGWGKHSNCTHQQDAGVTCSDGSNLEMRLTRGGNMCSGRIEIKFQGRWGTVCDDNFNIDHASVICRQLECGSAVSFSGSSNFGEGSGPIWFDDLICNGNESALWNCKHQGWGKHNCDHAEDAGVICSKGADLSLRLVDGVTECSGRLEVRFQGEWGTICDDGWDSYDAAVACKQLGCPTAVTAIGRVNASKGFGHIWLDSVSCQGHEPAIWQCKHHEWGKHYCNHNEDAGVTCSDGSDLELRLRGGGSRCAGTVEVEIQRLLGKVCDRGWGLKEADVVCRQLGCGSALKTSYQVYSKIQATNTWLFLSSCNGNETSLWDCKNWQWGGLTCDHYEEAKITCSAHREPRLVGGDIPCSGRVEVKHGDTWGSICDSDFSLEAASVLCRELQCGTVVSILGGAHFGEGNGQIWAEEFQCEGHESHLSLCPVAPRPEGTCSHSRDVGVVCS
For assay [9] the target is unchanged. The assay can be described thus: ratio of EC50 on huCD163 SRCR 1-5 to EC50 on huCD163 ECD.

human CD163 ECD with a C-terminal 8 histidine tag (HEK293-6E) (human), sequence (Q86VB7 other isoform, or with tags, fused parts or gaps limits assumed): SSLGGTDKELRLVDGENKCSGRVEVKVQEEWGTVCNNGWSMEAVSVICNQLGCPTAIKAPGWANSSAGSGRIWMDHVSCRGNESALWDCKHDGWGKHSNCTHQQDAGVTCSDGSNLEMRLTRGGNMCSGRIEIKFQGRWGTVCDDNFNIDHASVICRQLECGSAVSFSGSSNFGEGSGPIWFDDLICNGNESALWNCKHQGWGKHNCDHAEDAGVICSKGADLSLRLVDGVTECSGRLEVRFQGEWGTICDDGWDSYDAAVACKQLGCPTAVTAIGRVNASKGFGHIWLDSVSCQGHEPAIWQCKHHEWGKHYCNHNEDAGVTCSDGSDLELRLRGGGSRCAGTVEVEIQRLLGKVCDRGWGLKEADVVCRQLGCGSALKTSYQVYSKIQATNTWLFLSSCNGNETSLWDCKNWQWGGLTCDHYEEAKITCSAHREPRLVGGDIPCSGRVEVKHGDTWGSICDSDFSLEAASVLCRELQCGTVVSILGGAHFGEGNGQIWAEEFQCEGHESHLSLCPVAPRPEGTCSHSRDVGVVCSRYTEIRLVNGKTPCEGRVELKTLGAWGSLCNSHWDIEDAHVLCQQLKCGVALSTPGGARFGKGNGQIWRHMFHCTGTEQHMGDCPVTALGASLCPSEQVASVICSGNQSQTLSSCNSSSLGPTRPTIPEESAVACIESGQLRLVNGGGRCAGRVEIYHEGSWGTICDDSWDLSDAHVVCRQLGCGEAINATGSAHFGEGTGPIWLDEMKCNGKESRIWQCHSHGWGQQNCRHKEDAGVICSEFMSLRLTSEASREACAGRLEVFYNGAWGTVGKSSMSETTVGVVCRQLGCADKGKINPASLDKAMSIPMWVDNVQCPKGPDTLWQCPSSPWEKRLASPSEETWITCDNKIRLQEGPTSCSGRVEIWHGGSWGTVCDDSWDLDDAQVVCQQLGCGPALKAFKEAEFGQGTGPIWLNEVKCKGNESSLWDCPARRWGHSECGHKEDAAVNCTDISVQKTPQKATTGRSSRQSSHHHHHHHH
recombinant murine CD163 (R&D Systems, No. 7435-CD-050) (murine), sequence (Q2VLH6 39-1045 limits assumed): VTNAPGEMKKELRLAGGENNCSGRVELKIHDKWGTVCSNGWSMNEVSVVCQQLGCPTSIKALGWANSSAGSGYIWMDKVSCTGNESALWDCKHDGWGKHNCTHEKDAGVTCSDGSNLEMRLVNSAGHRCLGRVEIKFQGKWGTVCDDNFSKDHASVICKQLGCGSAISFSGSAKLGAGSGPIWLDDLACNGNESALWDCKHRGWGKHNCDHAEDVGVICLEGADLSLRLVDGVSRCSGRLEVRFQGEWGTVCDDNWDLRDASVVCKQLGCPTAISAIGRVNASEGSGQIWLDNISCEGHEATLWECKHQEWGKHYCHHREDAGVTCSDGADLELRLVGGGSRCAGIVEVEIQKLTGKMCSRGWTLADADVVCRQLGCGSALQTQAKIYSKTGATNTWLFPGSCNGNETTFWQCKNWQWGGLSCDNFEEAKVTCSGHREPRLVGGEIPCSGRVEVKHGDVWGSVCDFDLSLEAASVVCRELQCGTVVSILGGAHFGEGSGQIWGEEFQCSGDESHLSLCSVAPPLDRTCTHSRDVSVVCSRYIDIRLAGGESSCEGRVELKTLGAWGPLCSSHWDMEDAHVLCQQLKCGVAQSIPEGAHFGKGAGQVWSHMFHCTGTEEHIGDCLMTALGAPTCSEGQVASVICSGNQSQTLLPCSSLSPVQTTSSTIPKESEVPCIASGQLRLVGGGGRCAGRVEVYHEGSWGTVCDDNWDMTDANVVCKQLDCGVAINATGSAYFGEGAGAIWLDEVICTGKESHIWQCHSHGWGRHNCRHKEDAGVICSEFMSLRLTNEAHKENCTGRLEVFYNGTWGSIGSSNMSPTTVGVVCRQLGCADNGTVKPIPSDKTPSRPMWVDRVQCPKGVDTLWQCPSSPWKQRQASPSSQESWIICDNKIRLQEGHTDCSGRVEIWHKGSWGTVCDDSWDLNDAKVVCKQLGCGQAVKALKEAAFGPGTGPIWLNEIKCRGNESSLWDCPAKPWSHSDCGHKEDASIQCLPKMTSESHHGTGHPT

Usually EC50 (read off the curve) stands for the concentration giving half of the maximal effect. Regarding “commercially available rat anti-muCD163 antibody (Thermo Fisher Scientific #14-1631-82)”, the half-maximal effective concentration (EC50 (read off the curve)) in assay [1] was 0.02 nM.
By EC50 is commonly meant the concentration that produces a half-maximal response. As to RM3/1 (antibody), the EC50 in assay [2] is 0.061 nM.
For the substance “APC-labeled anti-huCD163 antibody (R&D Systems, #FAB1607A)”, the EC50 (read off the curve) in assay [3] worked out at 10 nM.
By Kd is commonly meant the concentration at which binding is half-saturated. By koff is commonly meant the first-order rate constant of dissociation. In general, kon refers to a measure of how fast the partners come together. For the substance anti-CD163 clone GHI/61 (antibody), in assay [4], the equilibrium dissociation constant (Kd) turned out to be 12 nM, the koff is 0.000178 s⁻¹ and the association rate constant (kon) worked out at 14800 M⁻¹ s⁻¹. Besides, in [5], the Kd came out at 63 nM, the koff worked out at 0.000467 s⁻¹ and the kon is 7320 M⁻¹ s⁻¹.
As to “control anti-huCD163 antibody, murine IgG1 (R&D Systems, #MAB1607)”, the concentration giving a half-maximal response (EC50 (read off the curve)) in assay [6] stood at 0.01 nM; in assay [7] it was 3 nM.
As for 215927 (antibody), the EC50 in assay [2] was 0.017 nM; in assay [8], 0.02 nM. In addition, in assay [9], the Ratio SRCR 1-5/ECD (EC50) is 1.17.
Take EDHu-1 (antibody): the EC50 in assay [2] turned out to be 0.052 nM; in assay [8], 0.05 nM. Besides, in assay [9], the Ratio SRCR 1-5/ECD (EC50) is 0.96.
